Test results reported in patent US20240376207A1 (JIANGSU HENGRUI PHARMACEUTICALS, published 2024).

Key:
[1] = biological target: T1, human PVRIG antigen (AcroBiosystem, PVG-H52H4) (human, UniProt Q6DKI7 41-171, limits assumed); experiment: SPR (Biacore X100), antibody captured on Protein A chip, 1:1 fit
T1 sequence (looked up): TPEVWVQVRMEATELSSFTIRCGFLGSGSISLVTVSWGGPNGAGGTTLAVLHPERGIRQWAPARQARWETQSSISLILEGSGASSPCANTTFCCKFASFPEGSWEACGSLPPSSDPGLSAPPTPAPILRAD
Description: The affinity of the humanized bispecific antibodies for human PVRIG, cynomolgus monkey PVRIG and human TIGIT was detected using Biacore. Humanized bispecific antibodies were each captured on a Protein A biosensor chip (GE lifesciences, 29127557) of a Biacore instrument (Biacore X100, GE), and then human PVRIG antigen (AcroBiosystem, PVG-H52H4), cynomolgus monkey PVRIG antigen (SEQ ID NO: 1), or human TIGIT antigen (AcroBiosystem, TIT-H52H3) at a series of concentration gradients each flowed over the chip surface. The reaction signals were detected in real time using a Biacore instrument (Biacore X100, GE) to obtain association and dissociation curves. The data obtained from the experiment were fitted using the (1:1) Binding model with the BiacoreX100 evaluation software 2.0 GE to obtain affinity values (see Table 31).

[2] = biological target: T2, his-tagged human PVRIG (h-PVRIG-his) recombinant protein (human, UniProt Q6DKI7 41-171, limits assumed); experiment: ELISA, coated antigen
T2 construct: bought from Acrobiosystems; also called Human PVRIG-his; human PVRIG recombinant protein; not shown: his tag
T2 sequence (looked up): T1 sequence (looked up)
Description: (§1) A human, cynomolgus monkey, or mouse PVRIG protein (at a concentration of 1 μg/mL) was coated on a 96-well microplate at 100 μL per well, and incubated overnight at 4° C. The plate was washed three times with wash buffer at 250 μL per well. For each wash, the plate was shaken for 10 s to ensure adequate cleaning. A blocking solution (PBS+0.05% Tween20+1% BSA) was added at 300 μL/well, and the plate was incubated at room temperature for 1 h. The plate was washed three times with wash buffer at 250 μL per well. For each wash, the plate was shaken for 10 s to ensure adequate cleaning. Dilutions of the test anti-PVRIG antibodies were added at 100 μL/well. The plate was incubated at 37° C. for 1 h. The plate was washed three times with wash buffer at 250 μL per well. The […] anti-human IgG secondary antibody (Sigma, A8667) was added at 100 μL per well. The plate was incubated at 37° C. for 1 h. The plate was washed three times with wash buffer at 250 μL per well. TMB was added at 100 μL/well, and the plate was incubated in the dark for 15 min. 0.16 M sulfuric acid was added at 50 μL/well. The OD values at 450 nm were read by using a Thermo MultiSkanFc microplate reader, and the EC₅₀ values of the binding of the anti-PVRIG antibodies to PVRIG were calculated.
(§2) Binding of the humanized anti-PVRIG/TIGIT bispecific antibodies to human and cynomolgus monkey PVRIG and their blocking of the ligand of human PVRIG were detected according to the methods of Examples 4, 5 and 6.

[3] = biological target: T3, his-tagged cynomolgus monkey PVRIG (cyno-PVRIG-his) recombinant protein (cynomolgus monkey); experiment: ELISA, coated antigen
T3 construct: expressed in HEK293, purified by Ni-NTA; also called Monkey PVRIG-his; cynomolgus monkey PVRIG recombinant protein
T3 chain: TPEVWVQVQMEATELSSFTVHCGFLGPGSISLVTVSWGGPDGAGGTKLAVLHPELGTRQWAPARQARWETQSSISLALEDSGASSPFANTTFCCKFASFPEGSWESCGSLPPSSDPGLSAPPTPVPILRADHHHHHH
Description: as §1, §2

[4] = biological target: T4, cynomolgus monkey TIGIT expressed on cells (cynomolgus monkey, UniProt A0A7N9I9V4 89-312); experiment: FACS, cells overexpressing target
T4 construct: whole, on cells; also called cells overexpressing cynomolgus monkey TIGIT
Description: (§3) The expression plasmid carrying human or cynomolgus monkey PVRIG gene sequence was transfected into HEK293 cells, and the over-expressing stable transfection monoclonal cell strain was obtained by antibiotic screening and infinite dilution. Overexpressing cells were seeded into a 96-well plate at 2×10⁵ cells/per well. The cells were centrifuged at 300 g for 5 min, the supernatant was then removed, 100 μL of the test antibody was added, and the mixture was incubated at 4° C. for 1 h. The mixture was centrifuged, the supernatant was removed, the plate was washed 3 times with 200 μL of wash buffer (PBS+2% FBS), and then 100 μL of an anti-human IgG secondary antibody (Invitrogen, A-11013) labeled with Alexa Fluor 488 diluted at 1:500 was added. The mixture was incubated at 4° C. for 1 h. The plate was centrifuged, and the supernatant was removed. The plate was washed 3 times with 200 μL of wash buffer (PBS+2% FBS). The cells were resuspended in 100 μL of PBS and tested on a flow cytometer (BD FACS Calibur or BD FACS Canto_II).
(§4) Similarly to Examples 4, 5 and 6, the binding of humanized anti-PVRIG/TIGIT bispecific antibodies to human and cynomolgus monkey TIGIT and blocking of binding of human TIGIT to ligand were detected, where PVRIG protein was replaced with TIGIT and PVRL2 was replaced with PVR.

[5] = biological target: T5, mouse IgG2a Fc-tagged human PVRIG (h-PVRIG-mIgG2a Fc) recombinant protein (human, UniProt Q6DKI7 41-171, limits assumed); experiment: competition ELISA; human PVRIG coated, competitor human PVRL2
T5 construct: bought from Acrobiosystems; not shown: mouse IgG2a Fc tag
T5 sequence (looked up): T1 sequence (looked up)
Description: The h-PVRIG-mIgG2a Fc protein (at a concentration of 1 μg/mL) was coated on the 96-well microplate at 100 μL per well, and incubated overnight at 4° C. The plate was washed three times with wash buffer at 250 μL per well. For each wash, the plate was shaken for 10 s to ensure adequate cleaning. A blocking solution was added at 300 μL/well, and the plate was incubated at room temperature for 1 h. The plate was washed three times with wash buffer at 250 μL per well. For each wash, the plate was shaken for 10 s to ensure adequate cleaning. 50 μL of diluted test anti-PVRIG antibody and 50 μL of his-tagged ligand PVRL2 were added to each well, and the plate was incubated at 37° C. for 1 h. The plate was washed three times with wash buffer at 250 μL per well. The HRP-labeled anti-his-tagged secondary antibody (Genscrpit) diluted at 1:2000 was added at 100 μL per well. The plate was incubated at 37° C. for 1 h. The plate was washed three times with wash buffer at 250 μL per well. TMB was added at 100 μL/well, and the plate was incubated in the dark for 15 min. 0.16 M sulfuric acid was added at 50 μL/well. OD values at 450 nm were measured using a Thermo MμtLtiSkanFc microplate reader, and the IC₅₀ values of the anti-PVRIG antibodies blocking the binding of PVRIG to PVRL2 were calculated.
as §2

[6] = biological target: cynomolgus monkey TIGIT recombinant protein (cynomolgus monkey, UniProt A0A7N9I9V4 89-209); experiment: ELISA, coated antigen
Description: as §1, §4

[7] = biological target: T6, cynomolgus monkey PVRIG expressed on cells (cynomolgus monkey, UniProt A0A2K5WVV8 1-322); experiment: FACS, cells overexpressing target
T6 construct: whole, on cells; also called Monkey PVRIG FACS; cells overexpressing cynomolgus monkey PVRIG
T6 sequence: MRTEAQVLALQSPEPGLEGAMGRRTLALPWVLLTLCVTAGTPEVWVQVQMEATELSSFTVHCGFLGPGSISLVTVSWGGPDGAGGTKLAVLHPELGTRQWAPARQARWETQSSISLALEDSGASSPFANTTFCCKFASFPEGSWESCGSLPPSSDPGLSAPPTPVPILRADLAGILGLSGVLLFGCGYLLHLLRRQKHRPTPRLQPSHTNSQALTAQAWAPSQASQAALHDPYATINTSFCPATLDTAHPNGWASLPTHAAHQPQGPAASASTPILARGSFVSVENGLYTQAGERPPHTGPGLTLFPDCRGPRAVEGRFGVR
Description: as §3, §2

[8] = biological target: T7, human PVRIG expressed on cells (human, UniProt Q6DKI7 41-326); experiment: FACS, cells overexpressing target
T7 construct: whole, on cells; also called Human PVRIG FACS; cells overexpressing human PVRIG
T7 sequence (looked up): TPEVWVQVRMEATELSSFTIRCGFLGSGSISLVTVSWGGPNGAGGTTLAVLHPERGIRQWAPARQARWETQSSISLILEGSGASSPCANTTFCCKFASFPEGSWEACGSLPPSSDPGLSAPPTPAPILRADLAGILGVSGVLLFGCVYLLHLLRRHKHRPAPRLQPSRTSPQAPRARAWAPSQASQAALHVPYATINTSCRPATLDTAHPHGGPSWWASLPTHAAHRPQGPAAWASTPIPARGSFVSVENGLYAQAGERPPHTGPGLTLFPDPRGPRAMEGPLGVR
Description: as §3, §2

T4 sequence (A0A7N9I9V4 entry or part of it): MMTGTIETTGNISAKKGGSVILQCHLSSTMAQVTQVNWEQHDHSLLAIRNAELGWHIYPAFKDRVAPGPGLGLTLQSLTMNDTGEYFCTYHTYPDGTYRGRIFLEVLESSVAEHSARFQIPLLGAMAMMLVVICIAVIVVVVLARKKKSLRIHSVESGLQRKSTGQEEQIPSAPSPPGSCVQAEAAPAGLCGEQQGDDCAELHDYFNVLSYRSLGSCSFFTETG
Chain of cynomolgus monkey TIGIT recombinant protein (A0A7N9I9V4 entry or part of it): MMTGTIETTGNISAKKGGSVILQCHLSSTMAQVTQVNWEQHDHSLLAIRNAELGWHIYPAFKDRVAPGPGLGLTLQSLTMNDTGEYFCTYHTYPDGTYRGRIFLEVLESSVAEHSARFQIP

B1: humanized anti-PVRIG/TIGIT bispecific antibody 1708-151H7 (bispecific antibody, human IgG4 S228P, kappa)
heavy: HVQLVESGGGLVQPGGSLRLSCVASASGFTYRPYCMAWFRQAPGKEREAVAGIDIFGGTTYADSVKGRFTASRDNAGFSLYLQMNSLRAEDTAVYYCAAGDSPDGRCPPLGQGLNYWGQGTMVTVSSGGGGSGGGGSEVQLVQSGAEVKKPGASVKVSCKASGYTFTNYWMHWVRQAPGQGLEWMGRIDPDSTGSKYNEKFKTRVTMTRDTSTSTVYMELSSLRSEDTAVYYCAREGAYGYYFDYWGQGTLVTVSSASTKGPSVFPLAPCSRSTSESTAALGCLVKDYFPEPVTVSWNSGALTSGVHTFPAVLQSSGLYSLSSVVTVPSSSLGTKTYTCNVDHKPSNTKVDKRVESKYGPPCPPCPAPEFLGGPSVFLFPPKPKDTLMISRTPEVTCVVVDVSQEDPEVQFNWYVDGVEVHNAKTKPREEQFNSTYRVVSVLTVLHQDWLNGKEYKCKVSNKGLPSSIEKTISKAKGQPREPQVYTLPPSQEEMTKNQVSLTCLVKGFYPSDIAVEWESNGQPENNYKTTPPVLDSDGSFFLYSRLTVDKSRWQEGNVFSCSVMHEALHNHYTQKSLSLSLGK
light: DIQMTQSPSSLSASVGDRVTITCRASENIYSYLAWYQQKPGKSPKLLIYNARTLAEGVPSRFSGSGSGTDFTLTISSLQPEDFATYYCQYHSGSPLPFGGGTKVEIKRTVAAPSVFIFPPSDEQLKSGTASVVCLLNNFYPREAKVQWKVDNALQSGNSQESVTEQDSKDSTYSLSSTLTLSKADYEKHKVYACEVTHQGLSSPVTKSFNRGEC
- Kd [1]: 0.125 nM
- koff [1]: 0.000757 s⁻¹
- kon [1]: 6.06e+06 M⁻¹ s⁻¹
- EC50 [2]: 0.679 nM
- EC50 [3]: 9.44 nM
- EC50 [4]: 0.012 nM
- IC50 [5]: 0.598 nM
- EC50 [6]: 0.119 nM
- EC50 [7]: 11.5 nM
- EC50 [8]: 0.043 nM
